# Measured values as given in PMC2903362 (The Journal of Biological Chemistry, 2010).
# Columns and labels:
# [1] = biological target: T1, FlK (fluoroacetyl-CoA thioesterase; WtFlK) (Streptantibioticus cattleyicolor, UniProt Q1EMV2); assay: X-ray crystal structure of complex; format: binding; settings: 10 mM FAcCPan, 100 mM CHES pH 9.5, 0.8 M trisodium citrate; active site
# T1 sequence (Q1EMV2 1-139): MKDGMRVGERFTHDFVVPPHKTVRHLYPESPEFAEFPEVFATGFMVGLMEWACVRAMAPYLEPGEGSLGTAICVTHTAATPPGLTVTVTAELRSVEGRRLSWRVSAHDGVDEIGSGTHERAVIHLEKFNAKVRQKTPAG
# [2] = biological target: the molecule itself; assay: SEC
# [3] = biological target: the molecule itself; assay: crystal structure
# [4] = biological target: the molecule itself; assay: crystal structure; remark: listed apart in the source
Molecule,X-ray crystal structure of complex [1],stoichiometry N [2],stoichiometry N [3],stoichiometry N [4]
CC(C)(CO)[C@@H](O)C(=O)NCCC(=O)NCCCC(=O)CF [FAcCPan],"WtFlK in complex with two analogues of fluoroacetyl-pantetheine, FAcCPan, and FAcOPan",,,
"wild-type FlK (fluoroacetyl-CoA thioesterase FlK) (enzyme, Streptomyces cattleya) MKDGMRVGERFTHDFVVPPHKTVRHLYPESPEFAEFPEVFATGFMVGLMEWACVRAMAPYLEPGEGSLGTAICVTHTAATPPGLTVTVTAELRSVEGRRLSWRVSAHDGVDEIGSGTHERAVIHLEKFNAKVRQKTPAG",,2,4,
"FlK E50A mutant (enzyme, Streptomyces cattleya) MKDGMRVGERFTHDFVVPPHKTVRHLYPESPEFAEFPEVFATGFMVGLMAWACVRAMAPYLEPGEGSLGTAICVTHTAATPPGLTVTVTAELRSVEGRRLSWRVSAHDGVDEIGSGTHERAVIHLEKFNAKVRQKTPAG",,2,,
"FlK T42A mutant (enzyme, Streptomyces cattleya) MKDGMRVGERFTHDFVVPPHKTVRHLYPESPEFAEFPEVFAAGFMVGLMEWACVRAMAPYLEPGEGSLGTAICVTHTAATPPGLTVTVTAELRSVEGRRLSWRVSAHDGVDEIGSGTHERAVIHLEKFNAKVRQKTPAG",,2,,4
"selenomethionine-labelled wild-type FlK (enzyme, Streptomyces cattleya, L-selenomethionine incorporated) MKDGMRVGERFTHDFVVPPHKTVRHLYPESPEFAEFPEVFATGFMVGLMEWACVRAMAPYLEPGEGSLGTAICVTHTAATPPGLTVTVTAELRSVEGRRLSWRVSAHDGVDEIGSGTHERAVIHLEKFNAKVRQKTPAG",,,,2
"FlK T42S mutant (enzyme, Streptomyces cattleya) MKDGMRVGERFTHDFVVPPHKTVRHLYPESPEFAEFPEVFASGFMVGLMEWACVRAMAPYLEPGEGSLGTAICVTHTAATPPGLTVTVTAELRSVEGRRLSWRVSAHDGVDEIGSGTHERAVIHLEKFNAKVRQKTPAG",,2,,4
